Reference: patent publication US20200317768A1 (published 2020)
Where a chain is given by its changes, count along the chain named.

T1: human FcγRIIaR extracellular domain, C-terminal His-tag (human, UniProt P12318 34-217)
T1 construct: also called human FcγRIIa (type R); FcgRIIaR; not shown: His-tag added to C-terminus
T1 chain: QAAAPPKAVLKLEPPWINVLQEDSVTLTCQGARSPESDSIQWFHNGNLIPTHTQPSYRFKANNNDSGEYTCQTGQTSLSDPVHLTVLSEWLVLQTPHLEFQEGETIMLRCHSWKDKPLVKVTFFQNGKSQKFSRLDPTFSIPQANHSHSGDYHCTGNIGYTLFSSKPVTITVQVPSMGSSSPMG

T2: human FcγRIIb extracellular domain, C-terminal His-tag (human, UniProt P31994 43-217)
T2 construct: also called FcgRIIb (human); not shown: His-tag added to C-terminus
T2 sequence: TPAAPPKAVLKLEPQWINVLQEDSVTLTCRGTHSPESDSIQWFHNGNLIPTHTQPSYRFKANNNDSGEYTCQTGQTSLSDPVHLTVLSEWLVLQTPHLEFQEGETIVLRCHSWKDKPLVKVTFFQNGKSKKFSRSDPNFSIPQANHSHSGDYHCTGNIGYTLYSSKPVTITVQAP

T3: cynomolgus monkey FcγRIIa2 extracellular domain, C-terminal His-tag (cynomolgus monkey)
T3 construct: also called cyno FcγRIIa2; cynoFcgRIIa2; not shown: His-tag added to C-terminus
T3 chain: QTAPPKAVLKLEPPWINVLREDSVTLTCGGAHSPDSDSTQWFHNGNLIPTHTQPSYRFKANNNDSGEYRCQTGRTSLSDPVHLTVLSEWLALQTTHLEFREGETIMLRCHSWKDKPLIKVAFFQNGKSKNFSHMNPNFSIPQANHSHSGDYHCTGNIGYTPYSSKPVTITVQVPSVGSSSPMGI

T4: human FcγRIIaH extracellular domain, C-terminal His-tag (human, UniProt P12318 34-217)
T4 construct: also called human FcγRIIa (type H); FcgRIIaH; not shown: His-tag added to C-terminus
T4 sequence: T1 chain with R134H

T5: cynomolgus monkey FcγRIIb extracellular domain, C-terminal His-tag (cynomolgus monkey)
T5 construct: also called cyno FcγRIIb; cynoFcγRIIb; not shown: His-tag added to C-terminus
T5 chain: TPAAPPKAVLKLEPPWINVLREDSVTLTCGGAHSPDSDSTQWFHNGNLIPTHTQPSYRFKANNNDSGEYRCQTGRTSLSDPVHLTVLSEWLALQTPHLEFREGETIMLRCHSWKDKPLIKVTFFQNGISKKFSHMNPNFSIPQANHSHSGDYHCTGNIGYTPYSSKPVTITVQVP

T6: cynomolgus monkey FcγRIIa1 extracellular domain, C-terminal His-tag (cynomolgus monkey)
T6 construct: also called cyno FcγRIIa1; cynoFcgRIIa1; not shown: His-tag added to C-terminus
T6 chain: T3 chain with T95P, A121T, K127I, S128A, N130K, N135D, Q142R

T7: cynomolgus monkey FcγRIIa3 extracellular domain, C-terminal His-tag (cynomolgus monkey)
T7 construct: also called cyno FcγRIIa3; cynoFcgRIIa3; not shown: His-tag added to C-terminus
T7 chain: T3 chain with K127I, N130K, H133P, Q142R

B1: M103205H795-MY209/M103202L889-SK1 (antibody, human IgG1, kappa)
heavy: QVTLKESGPVLVKPTETLTLTCTVSGIDLSHDDISWVRQAPGKGLEWVGIISYAGSTYYASWAKGRLTISKDTSKNQVVLTMTNMDPVDTATYYCARGVPAYSHGGDLWGQGTLVTVSSASTKGPSVFPLAPSSKSTSGGTAALGCLVKDYFPEPVTVSWNSGALTSGVHTFPAVLQSSGLYSLSSVVTVPSSSLGTQTYICNVNHKPSNTKVDKKVEPKSCDKTHTCPPCPAPELLNGPSVFLFPPKPKDTLMISRTPEVTCVVVDVSDEDPEVKFNWYVDGVEVHNAKTKPREELYNSTYRVVSVLTVLHQDWLNGKEYKCKVSNTALPKPIEKTISKAKGQPREPQVYTLPPSREEMTKNQVSLTCLVKGFYPSDIAVEWESNGQPENNYKTTPPVLDSDGSFFLYSKLTVDKSRWQQGNVFSCSVMHEALHNHYTQKSLSLSP
light: DIVMTQSPATLSLSPGERATLSCTSSQSVYHANWLSWFQQKPGQPPKLLIYWASTLAYGVPSRFSGSGSGTDFTLTISSLQPEDAATYYCAGGYGGGRYAFGQGTKVEIKRTVAAPSVFIFPPSDEQLKSGTASVVCLLNNFYPREAKVQWKVDNALQSGNSQESVTEQDSKDSTYSLSSTLTLSKADYEKHKVYACEVTHQGLSSPVTKSFNRGEC
B2: M103205H795-MY213/M103202L889-SK1 (antibody, human IgG1, kappa)
heavy: B1 heavy with L297Q, T328K, P398K
light: B1 light
B3: M103205H795-MY219/M103202L889-SK1 (antibody, human IgG1, kappa)
heavy: B1 heavy with N238G, G239Y, L297Q, T328K
light: B1 light
B4: M103205H795-MY227/M103202L889-SK1 (antibody, human IgG1, kappa)
heavy: B1 heavy with N238G, G239Y, L297Q, T328K, P398K
light: B1 light
B5: M103205H795-MY242/M103202L889-SK1 (antibody, human IgG1, kappa)
heavy: B1 heavy with N238G, P240I, L297Q, T328K, P398K
light: B1 light
B6: M103205H795-MY269/M103202L889-SK1 (antibody, human IgG1, kappa)
heavy: B1 heavy with N238M, L297Q, T328K, P398K
light: B1 light
B7: M103205H795-MY270/M103202L889-SK1 (antibody, human IgG1, kappa)
heavy: B1 heavy with N238H, L297Q, T328K, P398K
light: B1 light
B8: M103205H795-MY271/M103202L889-SK1 (antibody, human IgG1, kappa)
heavy: B1 heavy with N238V, L297Q, T328K, P398K
light: B1 light
B9: M103205H795-MY272/M103202L889-SK1 (antibody, human IgG1, kappa)
heavy: B1 heavy with N238Q, L297Q, T328K, P398K
light: B1 light
B10: M103205H795-MY273/M103202L889-SK1 (antibody, human IgG1, kappa)
heavy: B1 heavy with N238L, L297Q, T328K, P398K
light: B1 light
B11: M103205H795-MY274/M103202L889-SK1 (antibody, human IgG1, kappa)
heavy: B1 heavy with N238T, L297Q, T328K, P398K
light: B1 light
B12: M103205H795-MY276/M103202L889-SK1 (antibody, human IgG1, kappa)
heavy: B1 heavy with N238I, L297Q, T328K, P398K
light: B1 light
B13: M103205H795-MY278/M103202L889-SK1 (antibody, human IgG1, kappa)
heavy: B1 heavy with N238M, T328K
light: B1 light
B14: M103205H795-MY279/M103202L889-SK1 (antibody, human IgG1, kappa)
heavy: B1 heavy with N238H, T328K
light: B1 light
B15: M103205H795-MY280/M103202L889-SK1 (antibody, human IgG1, kappa)
heavy: B1 heavy with N238V, T328K
light: B1 light
B16: M103205H795-MY281/M103202L889-SK1 (antibody, human IgG1, kappa)
heavy: B1 heavy with N238Q, T328K
light: B1 light

What was measured:
Experiment in all cases: SPR (Biacore), antibody captured, FcgR analyte, 25 C
[1] = molecular target: T1, human FcγRIIaR extracellular domain, …
[2] = molecular target: T2, human FcγRIIb extracellular domain, …
[3] = molecular target: T3, cynomolgus monkey FcγRIIa2 …
[4] = molecular target: T4, human FcγRIIaH extracellular domain, …
[5] = molecular target: T5, cynomolgus monkey FcγRIIb extracellular …
[6] = molecular target: T6, cynomolgus monkey FcγRIIa1 …
[7] = molecular target: T7, cynomolgus monkey FcγRIIa3 …
[8] = molecular target: T8, human FcγRIIIaV extracellular domain, C-terminal His-tag (human, UniProt P08637 17-208)
T8 construct: also called FcgRIIIaV; not shown: His-tag added to C-terminus
T8 sequence (P08637 17-208 F176V): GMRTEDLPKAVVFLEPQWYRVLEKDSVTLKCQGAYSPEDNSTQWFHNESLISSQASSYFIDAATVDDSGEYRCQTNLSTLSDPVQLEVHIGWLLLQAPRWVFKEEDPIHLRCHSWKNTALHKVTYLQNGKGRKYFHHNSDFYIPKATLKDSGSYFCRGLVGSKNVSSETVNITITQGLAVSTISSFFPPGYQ

Binder	Kd [1] [nM]	Kd [2] [nM]	Kd [3] [nM]	Kd [4] [nM]	Kd [5] [nM]	Kd [6] [nM]	Kd [7] [nM]	Kd [8] [nM]
B1	830	500	630	570	190	630	1900	14000
B2	630	360	520	350	160	530	1300	11000
B3	160	340	4000	2300	1300	3500	5500	91000
B4	62	130	2500	1300	510	1900	2500	18000
B5	690	1900	4200	820	1100	4500	5900	9200
B6	720	2100	2600	230	350	2300	6400	1100
B7	370	2500	2300	73	530	1800	2500	3700
B8	2300	2100	700	44	190	760	3100	2300
B9	250	1200	1900	92	430	1900	6200	870
B10	1000	3000	3500	510	1200	3700	11000	9700
B11	170	950	800	8100	230	830	2000	2500
B12	250	2400	1300	53	310	1100	4300	5700
B13	1300	4400	3600	530	1300	3000	10000	3400
B14	720	4600	3300	140	910	2800	4700	7000
B15	450	2900	1200	81	330	1000	4600	4400
B16	390	1800	2500	130	620	1900	9100	2100
